Data: article PMC9482650, “Quantitative fragmentomics allow affinity mapping of interactomes” (Nature Communications, 2022)

Target: GRIP2_5, Q9C0E4
Experiment: holdup assay
Set-up: key: below the threshold = too weak to quantify, mostly under pKd 3.1 to 4
Conditions: plain residues with an end cap or a label only (N-terminal biotin on a linker: ado-ado)

Chain of GRIP2_5, Q9C0E4 (Q9C0E4 544-642): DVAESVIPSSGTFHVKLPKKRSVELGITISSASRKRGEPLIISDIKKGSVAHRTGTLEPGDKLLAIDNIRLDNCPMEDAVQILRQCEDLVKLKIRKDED

| Binder | pKd |
| --- | --- |
| NKSEPFLTWL [WWTR1, Q9GZV5] | below the threshold |

Target: DLG1_3, Q12959
Experiment: holdup assay
Set-up: key: below the threshold = too weak to quantify, mostly under pKd 3.1 to 4
Conditions: plain residues with an end cap or a label only (N-terminal biotin on a linker: ado-ado)

| Binder | pKd |
| --- | --- |
| NKSEPFLTWL [WWTR1, Q9GZV5] | below the threshold |

Target: T1, MPP6, Q9NZW5
T1 sequence (Q9NZW5 125-219, limits assumed, looked up): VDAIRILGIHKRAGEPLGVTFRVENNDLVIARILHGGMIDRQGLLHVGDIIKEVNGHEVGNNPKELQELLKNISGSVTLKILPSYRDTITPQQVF
Experiment: holdup assay
Set-up: key: below the threshold = too weak to quantify, mostly under pKd 3.1 to 4
Conditions: plain residues with an end cap or a label only (N-terminal biotin on a linker: ado-ado)

| Binder | pKd |
| --- | --- |
| NKSEPFLTWL [WWTR1, Q9GZV5] | 3.9 |

Target: T2, SIPA1L2, Q9P2F8
T2 sequence (Q9P2F8 945-1036, limits assumed, looked up): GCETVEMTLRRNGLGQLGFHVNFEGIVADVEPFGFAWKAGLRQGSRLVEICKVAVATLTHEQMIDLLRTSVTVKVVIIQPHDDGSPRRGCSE
Experiment: holdup assay
Set-up: key: below the threshold = too weak to quantify, mostly under pKd 3.1 to 4
Conditions: plain residues with an end cap or a label only (N-terminal biotin on a linker: ado-ado)

| Binder | pKd |
| --- | --- |
| NKSEPFLTWL [WWTR1, Q9GZV5] | below the threshold |

Target: GRIP2_6, Q9C0E4
Experiment: holdup assay
Set-up: key: below the threshold = too weak to quantify, mostly under pKd 3.1 to 4
Conditions: plain residues with an end cap or a label only (N-terminal biotin on a linker: ado-ado)

Chain of GRIP2_6, Q9C0E4 (Q9C0E4 648-740): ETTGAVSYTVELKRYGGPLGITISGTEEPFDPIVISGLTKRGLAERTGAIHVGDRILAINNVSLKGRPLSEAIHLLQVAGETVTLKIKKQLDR

| Binder | pKd |
| --- | --- |
| NKSEPFLTWL [WWTR1, Q9GZV5] | below the threshold |

Target: FRMPD3, Q5JV73
Experiment: holdup assay
Set-up: key: below the threshold = too weak to quantify, mostly under pKd 3.1 to 4
Conditions: plain residues with an end cap or a label only (N-terminal biotin on a linker: ado-ado)

Chain of FRMPD3, Q5JV73 (Q5JV73 12-100): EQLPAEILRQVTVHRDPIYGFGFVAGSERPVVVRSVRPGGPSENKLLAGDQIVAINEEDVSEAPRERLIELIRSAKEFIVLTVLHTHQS

| Binder | pKd |
| --- | --- |
| NKSEPFLTWL [WWTR1, Q9GZV5] | 4.26 |

Target: T3, SNTA1, Q13424
T3 sequence (Q13424 82-180, limits assumed, looked up): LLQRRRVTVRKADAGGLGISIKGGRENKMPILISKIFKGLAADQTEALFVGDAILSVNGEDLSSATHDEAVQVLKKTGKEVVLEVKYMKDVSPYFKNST
Experiment: holdup assay
Set-up: key: below the threshold = too weak to quantify, mostly under pKd 3.1 to 4
Conditions: plain residues with an end cap or a label only (N-terminal biotin on a linker: ado-ado)

| Binder | pKd |
| --- | --- |
| NKSEPFLTWL [WWTR1, Q9GZV5] | below the threshold |

Target: T4, NHERF3_4, Q5T2W1
T4 sequence (Q5T2W1 373-468, limits assumed, looked up): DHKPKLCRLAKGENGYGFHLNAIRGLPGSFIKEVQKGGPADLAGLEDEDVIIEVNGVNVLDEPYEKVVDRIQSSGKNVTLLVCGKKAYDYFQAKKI
Experiment: holdup assay
Set-up: key: below the threshold = too weak to quantify, mostly under pKd 3.1 to 4
Conditions: plain residues with an end cap or a label only (N-terminal biotin on a linker: ado-ado)

| Binder | pKd |
| --- | --- |
| NKSEPFLTWL [WWTR1, Q9GZV5] | 4.15 |

Target: T5, MPDZ_5, O75970
T5 sequence (O75970 695-796, limits assumed, looked up): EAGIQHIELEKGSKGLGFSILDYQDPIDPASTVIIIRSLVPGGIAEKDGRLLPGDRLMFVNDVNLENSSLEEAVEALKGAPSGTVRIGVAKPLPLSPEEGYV
Experiment: holdup assay
Set-up: key: below the threshold = too weak to quantify, mostly under pKd 3.1 to 4
Conditions: plain residues with an end cap or a label only (N-terminal biotin on a linker: ado-ado)

| Binder | pKd |
| --- | --- |
| NKSEPFLTWL [WWTR1, Q9GZV5] | below the threshold |

Target: CASK, O14936
Experiment: holdup assay
Set-up: key: below the threshold = too weak to quantify, mostly under pKd 3.1 to 4
Conditions: plain residues with an end cap or a label only (N-terminal biotin on a linker: ado-ado)

Chain of CASK, O14936 (O14936 487-570): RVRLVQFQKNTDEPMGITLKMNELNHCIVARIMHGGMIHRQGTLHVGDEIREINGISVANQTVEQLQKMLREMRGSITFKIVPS

| Binder | pKd |
| --- | --- |
| NKSEPFLTWL [WWTR1, Q9GZV5] | below the threshold |

Target: GRASP, Q7Z6J2
Experiment: holdup assay
Set-up: key: below the threshold = too weak to quantify, mostly under pKd 3.1 to 4
Conditions: plain residues with an end cap or a label only (N-terminal biotin on a linker: ado-ado)

Chain of GRASP, Q7Z6J2 (Q7Z6J2 96-193): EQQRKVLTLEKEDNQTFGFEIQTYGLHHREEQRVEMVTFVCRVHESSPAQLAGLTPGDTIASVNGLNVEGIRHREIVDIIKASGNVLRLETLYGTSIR

| Binder | pKd |
| --- | --- |
| NKSEPFLTWL [WWTR1, Q9GZV5] | 5.28 |

Target: T6, DLG3_1, Q92796
T6 sequence (Q92796 125-227, limits assumed, looked up): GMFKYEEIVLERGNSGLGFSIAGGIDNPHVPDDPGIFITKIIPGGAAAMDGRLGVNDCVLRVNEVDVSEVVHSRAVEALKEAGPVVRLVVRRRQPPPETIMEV
Experiment: holdup assay
Set-up: key: below the threshold = too weak to quantify, mostly under pKd 3.1 to 4
Conditions: plain residues with an end cap or a label only (N-terminal biotin on a linker: ado-ado)

| Binder | pKd |
| --- | --- |
| NKSEPFLTWL [WWTR1, Q9GZV5] | below the threshold |

Target: DLG1_2, Q12959
Experiment: holdup assay
Set-up: key: below the threshold = too weak to quantify, mostly under pKd 3.1 to 4
Conditions: plain residues with an end cap or a label only (N-terminal biotin on a linker: ado-ado)

| Binder | pKd |
| --- | --- |
| NKSEPFLTWL [WWTR1, Q9GZV5] | 3.59 |

Target: HTRA2, O43464
Experiment: holdup assay
Set-up: key: below the threshold = too weak to quantify, mostly under pKd 3.1 to 4
Conditions: plain residues with an end cap or a label only (N-terminal biotin on a linker: ado-ado)

Chain of HTRA2, O43464 (O43464 355-458): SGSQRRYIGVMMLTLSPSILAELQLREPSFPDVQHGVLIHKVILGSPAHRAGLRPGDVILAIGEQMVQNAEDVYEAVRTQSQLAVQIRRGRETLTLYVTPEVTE

| Binder | pKd |
| --- | --- |
| NKSEPFLTWL [WWTR1, Q9GZV5] | 4.51 |

Target: GRID2IP_2, A4D2P6
Experiment: holdup assay
Set-up: key: below the threshold = too weak to quantify, mostly under pKd 3.1 to 4
Conditions: plain residues with an end cap or a label only (N-terminal biotin on a linker: ado-ado)

Chain of GRID2IP_2, A4D2P6 (A4D2P6 272-370): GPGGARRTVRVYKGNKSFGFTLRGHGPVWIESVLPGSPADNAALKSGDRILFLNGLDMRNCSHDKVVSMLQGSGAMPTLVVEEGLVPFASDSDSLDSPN

| Binder | pKd |
| --- | --- |
| NKSEPFLTWL [WWTR1, Q9GZV5] | 4.65 |

Target: T7, PDZD2_2, O15018
T7 sequence (O15018 329-429, limits assumed, looked up): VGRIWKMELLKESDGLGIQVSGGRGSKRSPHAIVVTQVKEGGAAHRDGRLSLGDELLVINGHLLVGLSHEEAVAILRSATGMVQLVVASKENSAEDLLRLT
Experiment: holdup assay
Set-up: key: below the threshold = too weak to quantify, mostly under pKd 3.1 to 4
Conditions: plain residues with an end cap or a label only (N-terminal biotin on a linker: ado-ado)

| Binder | pKd |
| --- | --- |
| NKSEPFLTWL [WWTR1, Q9GZV5] | 5.89 |

Target: NHERF2_2, Q15599
Experiment: holdup assay
Set-up: key: below the threshold = too weak to quantify, mostly under pKd 3.1 to 4
Conditions: plain residues with an end cap or a label only (N-terminal biotin on a linker: ado-ado)

Chain of NHERF2_2, Q15599 (Q15599 142-238): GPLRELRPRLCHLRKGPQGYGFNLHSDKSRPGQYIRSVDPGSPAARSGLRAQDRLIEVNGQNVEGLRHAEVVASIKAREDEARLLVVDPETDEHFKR

| Binder | pKd |
| --- | --- |
| NKSEPFLTWL [WWTR1, Q9GZV5] | 5.27 |

Target: MAGI2_2, Q86UL8
Experiment: holdup assay
Set-up: key: below the threshold = too weak to quantify, mostly under pKd 3.1 to 4
Conditions: plain residues with an end cap or a label only (N-terminal biotin on a linker: ado-ado)

Chain of MAGI2_2, Q86UL8 (Q86UL8 410-522): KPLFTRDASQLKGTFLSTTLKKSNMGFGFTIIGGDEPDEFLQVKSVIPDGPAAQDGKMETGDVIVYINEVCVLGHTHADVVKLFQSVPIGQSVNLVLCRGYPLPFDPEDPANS

| Binder | pKd |
| --- | --- |
| NKSEPFLTWL [WWTR1, Q9GZV5] | 3.57 |

Target: MAST1, Q9Y2H9
Experiment: holdup assay
Set-up: key: below the threshold = too weak to quantify, mostly under pKd 3.1 to 4
Conditions: plain residues with an end cap or a label only (N-terminal biotin on a linker: ado-ado)

Chain of MAST1, Q9Y2H9 (Q9Y2H9 962-1065): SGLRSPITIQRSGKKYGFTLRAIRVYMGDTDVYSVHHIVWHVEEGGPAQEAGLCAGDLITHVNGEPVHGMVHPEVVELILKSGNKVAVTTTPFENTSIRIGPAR

| Binder | pKd |
| --- | --- |
| NKSEPFLTWL [WWTR1, Q9GZV5] | 4.25 |

Target: T8, DFNB31_3, Q9P202
T8 sequence (Q9P202 811-907, limits assumed, looked up): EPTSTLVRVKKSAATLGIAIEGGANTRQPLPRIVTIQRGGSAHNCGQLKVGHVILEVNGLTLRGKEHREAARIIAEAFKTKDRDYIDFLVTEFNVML
Experiment: holdup assay
Set-up: key: below the threshold = too weak to quantify, mostly under pKd 3.1 to 4
Conditions: plain residues with an end cap or a label only (N-terminal biotin on a linker: ado-ado)

| Binder | pKd |
| --- | --- |
| NKSEPFLTWL [WWTR1, Q9GZV5] | 5.34 |

Target: T9, NHERF3_1, Q5T2W1
T9 sequence (Q5T2W1 4-100, limits assumed, looked up): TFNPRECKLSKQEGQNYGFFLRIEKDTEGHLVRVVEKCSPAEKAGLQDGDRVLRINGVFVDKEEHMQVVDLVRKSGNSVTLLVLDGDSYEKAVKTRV
Experiment: holdup assay
Set-up: key: below the threshold = too weak to quantify, mostly under pKd 3.1 to 4
Conditions: plain residues with an end cap or a label only (N-terminal biotin on a linker: ado-ado)

| Binder | pKd |
| --- | --- |
| NKSEPFLTWL [WWTR1, Q9GZV5] | 5.05 |

Target: T10, PCLO, Q9Y6V0
T10 sequence (Q9Y6V0 4491-4600, limits assumed, looked up): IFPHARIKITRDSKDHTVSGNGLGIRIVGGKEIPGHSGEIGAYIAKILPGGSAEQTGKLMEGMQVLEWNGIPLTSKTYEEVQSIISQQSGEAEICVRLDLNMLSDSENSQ
Experiment: holdup assay
Set-up: key: below the threshold = too weak to quantify, mostly under pKd 3.1 to 4
Conditions: plain residues with an end cap or a label only (N-terminal biotin on a linker: ado-ado)

| Binder | pKd |
| --- | --- |
| NKSEPFLTWL [WWTR1, Q9GZV5] | below the threshold |

Target: FRMPD2_3, Q68DX3
Experiment: holdup assay
Set-up: key: below the threshold = too weak to quantify, mostly under pKd 3.1 to 4
Conditions: plain residues with an end cap or a label only (N-terminal biotin on a linker: ado-ado)

Chain of FRMPD2_3, Q68DX3 (Q68DX3 1073-1166): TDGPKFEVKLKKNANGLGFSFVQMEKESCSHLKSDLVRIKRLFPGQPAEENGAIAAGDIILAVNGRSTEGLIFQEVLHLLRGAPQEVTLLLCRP

| Binder | pKd |
| --- | --- |
| NKSEPFLTWL [WWTR1, Q9GZV5] | below the threshold |

Target: DLG1_1, Q12959
Experiment: holdup assay
Set-up: key: below the threshold = too weak to quantify, mostly under pKd 3.1 to 4
Conditions: plain residues with an end cap or a label only (N-terminal biotin on a linker: ado-ado)

| Binder | pKd |
| --- | --- |
| NKSEPFLTWL [WWTR1, Q9GZV5] | below the threshold |

Target: T11, LIN7A, O14910
T11 sequence (O14910 103-200, limits assumed, looked up): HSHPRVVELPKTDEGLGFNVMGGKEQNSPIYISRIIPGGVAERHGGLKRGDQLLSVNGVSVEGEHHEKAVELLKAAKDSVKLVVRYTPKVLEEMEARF
Experiment: holdup assay
Set-up: key: below the threshold = too weak to quantify, mostly under pKd 3.1 to 4
Conditions: plain residues with an end cap or a label only (N-terminal biotin on a linker: ado-ado)

| Binder | pKd |
| --- | --- |
| NKSEPFLTWL [WWTR1, Q9GZV5] | below the threshold |

Target: GOPC, Q9HD26
Experiment: holdup assay
Set-up: key: below the threshold = too weak to quantify, mostly under pKd 3.1 to 4
Conditions: plain residues with an end cap or a label only (N-terminal biotin on a linker: ado-ado)

| Binder | pKd |
| --- | --- |
| NKSEPFLTWL [WWTR1, Q9GZV5] | 4.16 |

Target: IL16_3, Q14005
Experiment: holdup assay
Set-up: key: below the threshold = too weak to quantify, mostly under pKd 3.1 to 4
Conditions: plain residues with an end cap or a label only (N-terminal biotin on a linker: ado-ado)

Chain of IL16_3, Q14005 (Q14005 1107-1207): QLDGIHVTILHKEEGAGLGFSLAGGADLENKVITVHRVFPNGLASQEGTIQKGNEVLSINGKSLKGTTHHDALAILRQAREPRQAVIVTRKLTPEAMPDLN

| Binder | pKd |
| --- | --- |
| NKSEPFLTWL [WWTR1, Q9GZV5] | below the threshold |
